Measurements as given in publication PMC4260089 (The Plant Journal, 2014).

T1: SERK3^250–615 (entire cytoplasmic portion, JM–KD–CT) (Arabidopsis thaliana), Q94F62
T1 chain: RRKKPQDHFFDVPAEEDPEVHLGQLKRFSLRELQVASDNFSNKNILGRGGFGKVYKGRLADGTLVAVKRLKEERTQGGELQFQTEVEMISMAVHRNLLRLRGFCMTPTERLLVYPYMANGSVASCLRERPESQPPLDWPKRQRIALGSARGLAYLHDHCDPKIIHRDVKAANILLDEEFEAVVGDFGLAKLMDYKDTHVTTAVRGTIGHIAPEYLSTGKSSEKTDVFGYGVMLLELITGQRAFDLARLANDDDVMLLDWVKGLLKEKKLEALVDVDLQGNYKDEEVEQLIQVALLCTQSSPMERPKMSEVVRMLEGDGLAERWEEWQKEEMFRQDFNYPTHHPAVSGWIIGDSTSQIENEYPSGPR

B1: SERK2^281–628 (cytoplasmic portion, JM–KD–CT) (domain or fragment, Arabidopsis thaliana, UniProt Q9XIC7 281-628, looked up)
chain: EDPEVHLGQLKRFSLRELQVATDSFSNKNILGRGGFGKVYKGRLADGTLVAVKRLKEERTPGGELQFQTEVEMISMAVHRNLLRLRGFCMTPTERLLVYPYMANGSVASCLRERPPSQLPLAWSIRQQIALGSARGLSYLHDHCDPKIIHRDVKAANILLDEEFEAVVGDFGLARLMDYKDTHVTTAVRGTIGHIAPEYLSTGKSSEKTDVFGYGIMLLELITGQRAFDLARLANDDDVMLLDWVKGLLKEKKLEMLVDPDLQSNYTEAEVEQLIQVALLCTQSSPMERPKMSEVVRMLEGDGLAEKWDEWQKVEVLRQEVELSSHPTSDWILDSTDNLHAMELSGPR
B2: SERK3^250–615 (entire cytoplasmic portion, JM–KD–CT), Q94F62 250-615 (domain or fragment)
chain: T1 chain

Assays:
SEC = biological target: the molecule itself; test: SEC
[1] = biological target: T1, SERK3^250–615 (entire cytoplasmic …); test: SEC; settings: remark: other sources report otherwise

| Binder | stoichiometry N (SEC) | stoichiometry N [1] |
| --- | --- | --- |
| B1 | 2 |  |
| B2 |  | 2 |
